Experimental data as given in publication PMC4014126 (2014).

B1: Myc-tagged mouse IL-17RA [mouse] / NF-κB activator 1 (Act1) [mouse (endogenous in MEFs)] (parent complex)
chain 1: SPRLLDFPAPVCAQEGLSCRVKNSTCLDDSWIHPKNLTPSSPKNIYINLSVSSTQHGELVPVLHVEWTLQTDASILYLEGAELSVLQLNTNERLCVKFQFLSMLQHHRKRWRFSFSHFVVDPGQEYEVTVHHLPKPIPDGDPNHKSKIIFVPDCEDSKMKMTTSCVSSGSLWDPNITVETLDTQHLRVDFTLWNESTPYQVLLESFSDSENHSCFDVVKQIFAPRQEEFHQRANVTFTLSKFHWCCHHHVQVQPFFSSCLNDCLRHAVTVPCPVISNTTVPKPVADYIPLWVYGLITLIAILLVGSVIVLIICMTWRLSGADQEKHGDDSKINGILPVADLTPPPLRPRKVWIVYSADHPLYVEVVLKFAQFLITACGTEVALDLLEEQVISEVGVMTWVSRQKQEMVESNSKIIILCSRGTQAKWKAILGWAEPAVQLRCDHWKPAGDLFTAAMNMILPDFKRPACFGTYVVCYFSGICSERDVPDLFNITSRYPLMDRFEEVYFRIQDLEMFEPGRMHHVRELTGDNYLQSPSGRQLKEAVLRFQEWQTQCPDWFERENLCLADGQDLPSLDEEVFEDPLLPPGGGIVKQQPLVRELPSDGCLVVDVCVSEEESRMAKLDPQLWPQRELVAHTLQSMVLPAEQVPAAHVVEPLHLPDGSGAAAQLPMTEDSEACPLLGVQRNSILCLPVDSDDLPLCSTPMMSPDHLQGDAREQLESLMLSVLQQSLSGQPLESWPRPEVVLEGCTPSEEEQRQSVQSDQGYISRSSPQPPEWLTEEEELELGEPVESLSPEELRSLRKLQRQLFFWELEKNPGWNSLEPRRPTPEEQNPS
chain 2: MNRSIPVEVDESEPFPSQLLKPIPEYSPEEELEPPAPNTRNMAPSSLSVLQCPPLKLANHQPVSQQVTCLRAKVLEEGEASFFRRHPELGKDISSCSSGASEPESELGALPPEHRFTLTEKRNRWLGSQLSAASPDTGHESDKSDPSLPNALADSFSGGQEMMPRPRPRPGPHRHRAAPDVPTIDTGYDSQPQDVLGIRQLERPLPLTSSCYLQDLPGPLRSRELPPQFELERYPMNAQLLPPHPSPQAPWNCQYYCPGGPYHHQVPHGHGYPPAAAYQQVLQPALPGQVLPGARARGPRPVQKVILNDSSPQDQEERPAQRDFSFPRLPRDQLYRPPSNGVEAPEESLDLPAELRPHGPQAPSLAAVPRPPSNPLARGTLRTSNLPEELRKVFITYSMDTAMEVVKFVNFLLVNGFQTAIDIFEDRIRGIDIIKWMERYLRDKTVMIIVAISPKYKQDVEGAESQLDEDEHGLHTKYIHRMMQIEFISQGSMNFRFIPVLFPNAKKEHVPTWLQNTHVYSWPKNKKNILLRLLREEEYVAPPRGPLPTLQVVPL

Variants of: B1
Experiment: co-immunoprecipitation (anti-Myc IP, Western blot, ImageJ densitometry); IL-17RA-deficient MEFs reconstituted by retroviral infection; treated with IL-17 for 10 min; parent: 100

percent of parent	Variant
107	chain 1 R420A, chain 1 Q423A, chain 1 K427A
107	chain 1 E388A, chain 1 Q389A, chain 1 E393A
102	chain 1 I429A, chain 1 L430A
98	chain 1 V396A, chain 1 M397A
